This note sets out measurements from PMC3721995.

Ends that are not written are not given here. * marks the point of attachment. Biotin = O=C1N[C@H]2[C@H](CS[C@H]2CCCCC(=O)*)N1

For the assay, the target named is recombinant HIV-1 gp120BaL protein (HIV-1 (isolate BaL)). The assay can be described thus: ELISA; solid-phase ELISA; gp120BaL coated at 8 ug/ml (50 mM bicarbonate pH 9.6, 4°C, 16 h); biotinylated peptides at 30 ug/ml in 20 mM Tris-HCl pH 7.4, 0.05% Tween-20, 37°C, 60 min; detected with AP-streptavidin, read at 405 nm. A general note: ELISA stands for enzyme-linked immunosorbent assay.

On to Biotin-GWLSHNCGHGEDAGV [SRCR1 peptide P19, biotinylated], for which the relative binding came out at 7.5.

Take Biotin-ALDDVRCSGHESYLW [SRCR1 peptide P15]: the relative binding amounted to 2.

For the molecule Biotin-RGSWGTVCDDSWDTN [SRCR1 peptide P6], the relative binding came out at 4.5.

For Biotin-NCGHGEDAGVICSA (cysteine pairing not given here) [SRCR1 peptide P20], the relative binding was 1.5.

As for Biotin-VEILYRGSWGTVCDD [SRCR1 peptide P5], the relative binding was determined as 4.

As to Biotin-GSGPIALDDVRCSGH [SRCR1 peptide P14], the relative binding stood at 1.5.
